Data from patent US20140105889A1 (published 2014).
Positions count from the first letter of the chain named. In names and notes the source's numbering stands. One block for each binder: values may come before it.

What was measured:
human FcγRIa = biological target: T1, human FcγRIa (human, UniProt P12314 16-292, limits assumed); experiment: SPR (Biacore), antibody captured on chip, FcγR as analyte, HBS-EP+, 25°C;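 further: FcγR binding response divided by the amount of captured antibody, then expressed relative to the reference antibody ×100, with antibodies captured via immobilized Protein A, A/G, L or antigen peptides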
T1 construct: Analyte in solution on Biacore; also called FcgRIa; hFcgRIa
Protocol: (§1) Interaction between each modified antibody and Fcγ receptor prepared in the manner described above was analyzed using the Biacore T100 (GE Healthcare), Biacore T200 (GE Healthcare), Biacore A100 or Biacore 4000. HBS-EP+ (GE Healthcare) was used for the running buffer, and measurements were carried out at 25° C. The chips used were chips in which antigen peptides, Protein A (Thermo Scientific), Protein A/G (Thermo Scientific) or Protein L (ACTIGEN or BioVision) were immobilized on the Series S Sensor Chip CM5 (GE Healthcare) or Series S Sensor Chip CM4 (GE Healthcare) by amine coupling, or chips in which preliminarily biotinylated antigen peptides were allowed to interact and then immobilized on the Series S Sensor Chip SA (certified) (GE Healthcare). The target antibodies were captured on these sensor chips, Fcγ receptor diluted with the running buffer was allowed to interact, followed by measurement of the amount of bound antibody. The amounts bound were compared between antibodies. However, since the amount of Fcγ receptor bound depends on the amount of captured antibody, the values used for comparison were first corrected by dividing the amount of Fcγ receptor bound by the captured amount of each antibody. Through reaction with 10 mM glycine-HCl at pH 1.5, the sensor chips were regenerated by washing off antibody captured on the sensor chips and used repeatedly.
(§2) Binding strength was evaluated according to the following method based on the results of analyzing the interaction with each FcγR. […] That value was then further multiplied by 100, and the resulting value was used as an indicator of relative binding activity to each FcγR.

human FcγRIIa(R) = biological target: T2, human FcγRIIa(R) (human, UniProt P12318 36-217); experiment: as above
T2 construct: Analyte in solution on Biacore; also called FcγRIIa type R; FcgRIIaR
T2 chain: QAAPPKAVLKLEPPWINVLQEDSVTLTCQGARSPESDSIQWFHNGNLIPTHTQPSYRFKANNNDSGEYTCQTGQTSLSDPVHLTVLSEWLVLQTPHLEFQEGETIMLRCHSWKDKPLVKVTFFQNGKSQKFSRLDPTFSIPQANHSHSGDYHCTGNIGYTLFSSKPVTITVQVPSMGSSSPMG
Protocol: as §1, §2

human FcγRIIa(H) = biological target: T3, human FcγRIIa(H) (human, UniProt P12318 36-217); experiment: as above
T3 construct: Analyte in solution on Biacore; also called FcγRIIa type H; FcgRIIaH
T3 sequence: T2 chain with R133H
Protocol: as §1, §2

human FcγRIIb = biological target: T4, human FcγRIIb (human, UniProt P31994 43-217, limits assumed); experiment: as above
T4 construct: Analyte in solution on Biacore; also called FcgRIIb; hFcgRIIb
T4 sequence: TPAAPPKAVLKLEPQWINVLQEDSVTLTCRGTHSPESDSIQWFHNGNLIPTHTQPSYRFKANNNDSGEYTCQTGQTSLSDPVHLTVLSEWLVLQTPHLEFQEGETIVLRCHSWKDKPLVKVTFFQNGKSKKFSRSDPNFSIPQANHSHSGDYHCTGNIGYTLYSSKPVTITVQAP
Protocol: as §1, §2

human FcγRIIIa(F) [1] = biological target: T5, human FcγRIIIa(F) (human, UniProt P08637 17-208, limits assumed); experiment: as above
T5 construct: also called FcgRIIIaF; hFcgRIIIa(F)
T5 sequence (P08637 other isoform, or with tags, fused parts or gaps limits assumed): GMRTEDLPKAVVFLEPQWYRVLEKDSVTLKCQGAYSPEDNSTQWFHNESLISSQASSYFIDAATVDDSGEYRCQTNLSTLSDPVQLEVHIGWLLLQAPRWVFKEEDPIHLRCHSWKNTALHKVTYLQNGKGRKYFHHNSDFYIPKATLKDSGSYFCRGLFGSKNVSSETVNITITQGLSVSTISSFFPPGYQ
Protocol: as §1, §2

human FcγRIIIa(F) [2] = biological target: T6, human FcγRIIIa(F) (human, UniProt P08637 17-208, limits assumed); experiment: SPR (Biacore), antibody captured on Protein L, human FcgR as analyte, pH 7.4, 25 C; amount normalised to captured antibody
T6 construct: also called hFcgRIIIa(F); allotype F158
T6 sequence (P08637 other isoform, or with tags, fused parts or gaps limits assumed): as above
Protocol: Binding activity between the antibodies and human FcγRIa, FcγRIIa(H), FcγRIIa(R), FcγRIIb and FcγRIIIa(F) (hereinafter referred to as human FcγRs) was evaluated using the Biacore T100 or T200 (GE Healthcare). The antibodies being tested were captured by Protein L (ACTIGEN) that was immobilized in suitable amounts on the CM4 Sensor Chip (GE Healthcare) by amine coupling. Next, the diluted human FcγRs and a running buffer used as a blank were injected to allow interaction with the antibodies captured on the sensor chip. A buffer consisting of 20 mmol/L ACES, 150 mmol/L NaCl and 0.05% (w/v) Tween 20 (pH 7.4) was used for the running buffer, and this buffer was also used to dilute the human FcγRs. 10 mmol/L glycine-HCl (pH 1.5) was used to regenerate the sensor chip. All measurements were carried out at 25° C.
Binding activity to human FcγRs can be represented by the relative binding activity to human FcγRs. Antibody was captured by Protein L, and the amount of change in a sensorgram before and after the antibody was captured was defined as X1. Next, human FcγRs were allowed to interact with the antibody, and the value obtained by subtracting binding activity of human FcγRs represented as the amount of change in a sensorgram before and after allowing the running buffer to interact with antibody captured by Protein L (ΔA2) from the value obtained by multiplying by 1500 the value obtained by dividing the binding activity of human FcγRs represented as the amount of change in a sensorgram before and after that interaction (ΔA1) by the captured amount (X) of each antibody, was divided by the captured amount of each antibody (X) followed by multiplying by 1500 to obtain the binding activity of the human FcγRs (Y) (Equation 2).

T1 sequence (P12314 16-292 limits assumed): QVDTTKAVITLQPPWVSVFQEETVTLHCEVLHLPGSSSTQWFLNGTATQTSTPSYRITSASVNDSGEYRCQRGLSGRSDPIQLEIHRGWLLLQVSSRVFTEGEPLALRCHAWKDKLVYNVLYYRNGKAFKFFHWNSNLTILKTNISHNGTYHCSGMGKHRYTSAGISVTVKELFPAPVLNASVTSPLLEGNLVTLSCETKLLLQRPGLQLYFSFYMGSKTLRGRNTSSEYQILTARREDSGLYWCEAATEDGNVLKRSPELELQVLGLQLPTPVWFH

- relative binding activity (% of GpH7-B3/GpL16-k0) (human FcγRIa): 95%
- relative binding activity (% of GpH7-B3/GpL16-k0) (human FcγRIIa(R)): 64%
- relative binding activity (% of GpH7-B3/GpL16-k0) (human FcγRIIa(H)): 59%
- relative binding activity (% of GpH7-B3/GpL16-k0) (human FcγRIIb): 55%
- relative binding activity (% of GpH7-B3/GpL16-k0) (human FcγRIIIa(F) [1]): 38%
B1: GpH7-B3 variant P331R / GpL16-k0 (antibody, human IgG1)
heavy: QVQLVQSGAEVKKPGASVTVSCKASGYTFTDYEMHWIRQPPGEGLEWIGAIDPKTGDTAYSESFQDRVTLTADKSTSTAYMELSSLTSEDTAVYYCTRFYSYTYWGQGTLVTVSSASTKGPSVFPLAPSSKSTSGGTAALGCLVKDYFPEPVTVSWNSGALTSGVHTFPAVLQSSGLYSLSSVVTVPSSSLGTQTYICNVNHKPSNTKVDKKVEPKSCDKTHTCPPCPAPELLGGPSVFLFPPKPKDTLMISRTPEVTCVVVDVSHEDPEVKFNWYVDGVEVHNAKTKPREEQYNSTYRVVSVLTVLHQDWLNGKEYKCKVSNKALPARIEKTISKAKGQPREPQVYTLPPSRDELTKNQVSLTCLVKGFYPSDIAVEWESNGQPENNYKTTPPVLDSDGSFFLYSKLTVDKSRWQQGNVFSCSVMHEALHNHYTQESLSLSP
light: DIVMTQSPLSLPVTPGEPASISCQASESLVHSNRNTYLHWYLQKPGQSPQLLIYKVSNRFSGVPDRFSGSGSGTDFTLKISRVEAEDVGVYYCSQNTHVPPTFGQGTKVEIE
notes: Anti-glypican-3 IgG1; constant region B3 = G1d with K439E

- relative binding activity (% of GpH7-B3/GpL16-k0) (human FcγRIa): 58%
- relative binding activity (% of GpH7-B3/GpL16-k0) (human FcγRIIa(R)): 0%
- relative binding activity (% of GpH7-B3/GpL16-k0) (human FcγRIIa(H)): 0%
- relative binding activity (% of GpH7-B3/GpL16-k0) (human FcγRIIb): -3%
- relative binding activity (% of GpH7-B3/GpL16-k0) (human FcγRIIIa(F) [1]): 0%
B2: GpH7-B3 variant A330S / GpL16-k0 (antibody, human IgG1)
heavy: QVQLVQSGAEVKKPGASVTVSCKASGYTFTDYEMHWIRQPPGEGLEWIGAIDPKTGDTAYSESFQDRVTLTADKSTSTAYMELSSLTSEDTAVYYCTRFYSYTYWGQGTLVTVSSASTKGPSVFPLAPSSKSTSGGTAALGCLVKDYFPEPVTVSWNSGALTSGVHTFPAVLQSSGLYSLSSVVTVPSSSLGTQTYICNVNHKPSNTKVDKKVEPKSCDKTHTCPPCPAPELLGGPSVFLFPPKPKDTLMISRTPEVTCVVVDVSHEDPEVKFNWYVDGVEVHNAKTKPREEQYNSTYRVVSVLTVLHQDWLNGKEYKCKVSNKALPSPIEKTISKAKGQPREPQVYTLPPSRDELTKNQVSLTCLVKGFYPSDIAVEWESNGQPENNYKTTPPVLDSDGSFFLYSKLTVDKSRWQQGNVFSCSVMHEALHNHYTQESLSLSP
light: B1 light
notes: as for B1

- relative binding activity (% of GpH7-B3/GpL16-k0) (human FcγRIa): 87%
- relative binding activity (% of GpH7-B3/GpL16-k0) (human FcγRIIa(R)): 42%
- relative binding activity (% of GpH7-B3/GpL16-k0) (human FcγRIIa(H)): 25%
- relative binding activity (% of GpH7-B3/GpL16-k0) (human FcγRIIb): 39%
- relative binding activity (% of GpH7-B3/GpL16-k0) (human FcγRIIIa(F) [1]): 56%
B3: GpH7-B3 variant A330P / GpL16-k0 (antibody, human IgG1)
heavy: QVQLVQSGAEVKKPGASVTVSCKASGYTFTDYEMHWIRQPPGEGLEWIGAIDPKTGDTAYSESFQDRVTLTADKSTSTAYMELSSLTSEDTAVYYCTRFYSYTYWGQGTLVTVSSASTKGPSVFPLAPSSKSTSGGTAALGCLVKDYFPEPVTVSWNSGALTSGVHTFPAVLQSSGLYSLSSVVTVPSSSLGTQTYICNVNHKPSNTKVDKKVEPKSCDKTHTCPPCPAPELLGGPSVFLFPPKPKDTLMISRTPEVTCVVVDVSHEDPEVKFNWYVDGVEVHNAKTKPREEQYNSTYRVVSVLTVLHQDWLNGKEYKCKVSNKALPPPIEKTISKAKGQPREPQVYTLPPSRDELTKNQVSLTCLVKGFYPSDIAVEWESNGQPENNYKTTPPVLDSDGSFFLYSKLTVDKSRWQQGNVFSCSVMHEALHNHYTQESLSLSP
light: B1 light
notes: as for B1

- BINDING AMOUNT (RU) (human FcγRIIIa(F) [2]): -0.68 RU
B4: antibody containing VH3-IgG1-F1009 for the heavy chain and L(WT)-CK for the light chain (antibody)
heavy: QVQLQESGPGLVKPSETLSLTCAVSGHSISHDHAWSWVRQPPGEGLEWIGFISYSGITNYNPSLQGRVTISRDNSKNTLYLQMNSLRAEDTAVYYCARSLARTTAMDYWGEGTLVTVSSASTKGPSVFPLAPSSKSTSGGTAALGCLVKDYFPEPVTVSWNSGALTSGVHTFPAVLQSSGLYSLSSVVTVPSSSLGTQTYICNVNHKPSNTKVDKKVEPKSCDKTHTCPPCPAPELRGGPKVFLFPPKPKDVLYISRTPEVTCVVVDVSHEDPEVKFNWYVDGVEVHNAKTKPREEQYNSTYRVVSVLQPLHADWLNGKEYKCKVSNKALPAPIEKTISKAKGQPREPQVYTLPPSRDELTKNQVSLTCLVKGFYPSDIAVEWESNGQPENNYKTTPPVLDSDGSFFLYSKLTVDKSRWQQGNVFSCSVMHEALHYHVTQKSLSLSP
light: not shown

- BINDING AMOUNT (RU) (human FcγRIIIa(F) [2]): -1.01 RU
B5: antibody containing VH3-IgG1-F1333 for the heavy chain and L(WT)-CK for the light chain (antibody)
heavy: B4 heavy with G238R, V252T, Q309T, P310V, A313Q
light: not shown

- BINDING AMOUNT (RU) (human FcγRIIIa(F) [2]): -1.03 RU
B6: antibody containing VH3-IgG1-F1318 for the heavy chain and L(WT)-CK for the light chain (antibody)
heavy: B4 heavy with R237L, V252T, Q309T, P310V, A313Q, P331R
light: not shown

- BINDING AMOUNT (RU) (human FcγRIIIa(F) [2]): -0.54 RU
B7: antibody containing VH3-IgG1-F1325 for the heavy chain and L(WT)-CK for the light chain (antibody)
heavy: B4 heavy with L236A, R237A, K241S, V252T, N299A, Q309T, P310V, A313Q
light: not shown

- BINDING AMOUNT (RU) (human FcγRIIIa(F) [2]): -1.85 RU
B8: antibody containing VH3-IgG1-F1327 for the heavy chain and L(WT)-CK for the light chain (antibody)
heavy: B4 heavy with L236A, R237A, K241S, N299A
light: not shown

- BINDING AMOUNT (RU) (human FcγRIIIa(F) [2]): -0.26 RU
B9: antibody containing VH3-IgG1-F1316 for the heavy chain and L(WT)-CK for the light chain (antibody)
heavy: B4 heavy with R237L, G239R, V252T, Q309T, P310V, A313Q
light: not shown

- BINDING AMOUNT (RU) (human FcγRIIIa(F) [2]): -0.33 RU
B10: antibody containing VH3-IgG1-F1315 for the heavy chain and L(WT)-CK for the light chain (antibody)
heavy: B4 heavy with R237L, G239K, V252T, Q309T, P310V, A313Q
light: not shown

- BINDING AMOUNT (RU) (human FcγRIIIa(F) [2]): -0.94 RU
B11: antibody containing VH3-IgG1-F1317 for the heavy chain and L(WT)-CK for the light chain (antibody)
heavy: B4 heavy with R237L, V252T, Q309T, P310V, A313Q, P331K
light: not shown
